Measurements from patent publication US20170233449A1 (Teva, published 2017).

Tests used:
human CD38 on cells = human CD38 on cells (human, UniProt P28907 1-300); assay: flow cytometry, hybridoma supernatant on RPMI-8226 cells; background MFI average 153
Protocol: Viable RPMI-8226 cells (2×10⁵, as judged by trypan blue exclusion) were incubated with 100 μL of rat hybridoma supernatant for 20 minutes on ice in the dark. Cells were washed twice with FACS buffer (1× PBS plus 1% FCS) before incubation for 20 minutes in 100 μl of FACS buffer containing anti-rat IgG-FITC conjugate (Sigma-Aldrich). After washing cells in FACS buffer, they were resuspended in FACS buffer and analysed for antibody-binding by flow cytometry on a FACS Canto (BD Biosciences, San Diego, Calif.) using EV, side scatter and FL-1 gating. Results were expressed as mean fluorescent intensity (MFI).

[1] = target: T1, human CD38 extracellular domain (ECD), tagged (human, Avitag biotinylated (in the ELISAs)); assay: SPR (Biacore T200), antibody captured on Protein A, CD38 ED as analyte, 1:1 Langmuir fit;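 further: CM5 sensor chip in HBS-P buffer at pH 7.4, antibody loaded at 5 µg/mL, responses corrected against a blank reference flow cell before fitting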
T1 construct: also called human CD38 ED; biotinylated human CD38
Protocol: (§1) Briefly, using a Biacore T200, Protein A was immobilized onto Flow Cell (FC) 1 (FC1) and FC2 (or alternatively FC3 and FC4) of a CM5 research grade sensor chip using amine coupling, giving approximately 2000 RU. FC1 was used as a blank throughout the experiments. The experiments were run in HBS-P buffer (0.01 M HEPES pH 7.4, 0.15 M NaCl, 0.005% v/v Surfactant P20). At a flow rate of 20 μl/min, 20 μl of 5 μg/mL of antibody was passed over FC2. […] Regeneration of the surface was performed using 10mM Glycine, pH 1.0. The FC1 sensorgram data was subtracted from FCS and the curves were fitted using a 1:1 Langmuir equation to generate the kd, kₐ and KD values.

[2] = target: T2, cynomolgus monkey CD38 extracellular domain (ECD), tagged (cynomolgus monkey, Avitag biotinylated (in the ELISAs)); assay: as above
T2 construct: also called cynomolgus monkey CD38 ED
T2 chain: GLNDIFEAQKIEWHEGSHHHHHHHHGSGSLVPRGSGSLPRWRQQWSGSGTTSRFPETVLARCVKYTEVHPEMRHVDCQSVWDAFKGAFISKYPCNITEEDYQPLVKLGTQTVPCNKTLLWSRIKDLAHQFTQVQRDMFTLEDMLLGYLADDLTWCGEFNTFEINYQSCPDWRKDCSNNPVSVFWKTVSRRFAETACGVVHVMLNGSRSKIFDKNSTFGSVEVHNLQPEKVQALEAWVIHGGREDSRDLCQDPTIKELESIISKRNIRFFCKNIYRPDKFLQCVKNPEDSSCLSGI
Protocol: as §1

[3] = target: T1, human CD38 extracellular domain (ECD), …; assay: ELISA, biotinylated CD38 ED on streptavidin plates, FAb lysate, anti-V5-HRP
Protocol: (§2) Plates were then washed and individual FAb samples (prepared as described above) were added to individual wells on the ELISA plates. FAbs were allowed to bind the captured CD38 ED for an hour at room temperature and then washed three times with PBS-T (1× PBS supplemented with 0.1% Tween®20). FAbs that bound to CD38 ED were detected by incubation for 30 minutes at room temperature with an anti-V5-HRP conjugated antibody (Invitrogen, Carlsbad, Calif.) to detect the V5 tag fused to the C-terminus of the FAb heavy chain. Plates were washed to remove unbound antibody and the assay signal developed by incubation with 50 μL 3,3′,5,5′-Tetramethylbenzidine (Sigma-Adrich, St. Louis, Mo.) and quenching with 50 μL 1 M HCl. Assay signals were read at A450 nm using a microplate reader (BMG Labtech). Results were expressed as the raw A450 nm value, where any signal 2-fold greater than the average assay background was defined as ‘positive’.
(§3) In later assays FAb cross-reactivity with cynomolgus monkey CD38 ED was assessed by coating biotinylated cynomolgus monkey CD38 ED onto streptavidin coated ELISA plates and proceeding as described above.

[4] = target: T2, cynomolgus monkey CD38 extracellular …; assay: as above
Protocol: as §2, §3

[5] = target: T1, human CD38 extracellular domain (ECD), …; assay: ELISA, hybridoma supernatant coated, biotinylated CD38 ED in solution
Protocol: (§4) Following incubation for 1 hour at room temperature, plates were washed as described previously. To one well of each rat antibody duplicate well was added 0.1 μg of biotinylated human CD38 in a final volume of 100 μL 1× PBS. To the second well of each rat antibody duplicate well was added 0.1 μg of biotinylated cynomolgus monkey CD38 ED in a final volume of 100 μL 1× PBS. Plate wells were washed as described previously prior to detection of bound biotinylated CD38 ED using a Streptavidin-HRP conjugate (BD Biosciences, San Diego, Calif.). Plates were washed as above to remove unbound Streptavidin-HRP conjugate and the assay signal developed by incubation with 50 μL 3,3′,5,5′-Tetramethylbenzidine (Sigma-Aldrich) and quenching with 50 μL 1 M HCl. Assay signals were read at A₄₅₀ nm using a microplate reader (BMG Labtech, Cary, N.C.).

[6] = target: T2, cynomolgus monkey CD38 extracellular …; assay: as above
Protocol: as §4

B1: R10A2 (rat hybridoma antibody) (antibody, V domains shown)
VH: EVQLQQSGPEVGRPGSSVKISCKASGYTFTDSVMNWVKQSPGQGLEWIGWIDPEYGRTDVAEKFKKKATLTADSSSSTAYIYLSGLTSEDTATYFCARTKYNSGYGFPYWGQGSLVTVSS
VL: DIVMTQSPTSISISVGERVTMNCKASQNVDSDVDWYQQKTGQSPKLLIYKASNRYTGVPDRFTGSGSGTDFTFTISNMQAEDLAVYYCMQSNTHPRTFGGGTKLELK
notes: tested as rat hybridoma supernatant; kappa light chain
- MFI (human CD38 on cells): 4470 MFI

B2: R10A2 IgG1 (antibody, V domains shown)
VH: EVQLQQSGPEVGRPGSSVKISCKASGYTFTDSVMNWVKQSPGQGLEWIGWIDPEYGRTDVAEKFKKKATLTADSSSSTAYIYLSGLTSEDTATYFCARTKYNSGYGFPYWGQGSLVTVSS
VL: DIVMTQSPTSISISVGERVTMNCKASQNVDSDVDWYQQKTGQSPKLLIYKASNRYTGVPDRFTGSGSGTDFTFTISNMQAEDLAVYYCMQSNTHPRTFGGGTKLELKR
notes: chimeric rat-human IgG1
- Kd [1]: 0.7 nM
- koff [1]: 0.000479 s⁻¹
- kon [1]: 660000 M⁻¹ s⁻¹
- Kd [2]: 2.2 nM
- koff [2]: 0.00193 s⁻¹
- kon [2]: 898000 M⁻¹ s⁻¹

B3: X910/12 FAb (Fab, V domains shown)
VH: EVQLVQSGAEVKKSGASVKVSCKASGYTFTDYYIHWVRQAPGQGLEWMGWINPNNGGVTFAQKFQGRVTMTRDTSISTAYMDLSSLRSDDTAVYFCARDIRMSGWLAPFDYWGQGTLVTVSS
VL: QAVLTQPASLSASPGESARLTCTLPSDINVRYYNIYWYQQKPGSPPRYLLYYYSDSHKDQGSGVPSRFSGSKDTSANTGILLISGLQSEDEADYYCMIWASNGSGVLGGGTQLTVL
notes: human Fab from E. coli lysate, V5 tag at the C-terminus of the Fab heavy chain
- binding result [3]: binds
- binding result [4]: binds

B4: X355/07 IgG1 (antibody, V domains shown)
VH: QVQLQESGPGLVKPSETLSLTCAVYGGSFSGYYWSWIRQPPGKGLEWIGSIYHSGSTYYNPSLKSRVTISVDTSKNQFSLKLSSVTAADTAVYYCARDLYYYYGMDVWGQGTTVTVSS
VL: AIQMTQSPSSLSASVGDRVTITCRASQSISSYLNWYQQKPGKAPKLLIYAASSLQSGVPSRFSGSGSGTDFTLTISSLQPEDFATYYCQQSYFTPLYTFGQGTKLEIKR
notes: human IgG1 from phage-derived Fab
- Kd [1]: 11.4 nM
- koff [1]: 0.00132 s⁻¹
- kon [1]: 115000 M⁻¹ s⁻¹
- Kd [2]: 12.2 nM
- koff [2]: 0.0138 s⁻¹
- kon [2]: 1.13e+06 M⁻¹ s⁻¹

B5: R5D1 IgG1 (antibody, V domains shown)
VH: EVQLQQSGPEVGRPGSSVKISCKASGYTFTDYIMHWVKQSPGQGLEWIGWIDPEYGRTDYAEKFKKKATLTADTSSSTAYIQLSSLASEDTATYFCARSAHTTGFGFAYWGQGTLVTVSS
VL: DIQMTQSPASLSASLGETVTIECRASEDIYSNLAWYQQKPGNSPQLLIYDANSLADGVPSRFSASGSGTQFSLKINSLRSEDVASYFCQQYNNYPYTFGAGTKLELKR
notes: chimeric rat-human IgG1
- Kd [1]: 1 nM
- koff [1]: 0.000239 s⁻¹
- kon [1]: 243000 M⁻¹ s⁻¹
- Kd [2]: 1 nM
- koff [2]: 0.0011 s⁻¹
- kon [2]: 1.11e+06 M⁻¹ s⁻¹

B6: R5D1 (rat hybridoma antibody) (antibody, V domains shown)
VH: EVQLQQSGPEVGRPGSSVKISCKASGYTFTDYIMHWVKQSPGQGLEWIGWIDPEYGRTDYAEKFKKKATLTADTSSSTAYIQLSSLASEDTATYFCARSAHTTGFGFAYWGQGTLVTVSS
VL: DIQMTQSPASLSASLGETVTIECRASEDIYSNLAWYQQKPGNSPQLLIYDANSLADGVPSRFSASGSGTQFSLKINSLRSEDVASYFCQQYNNYPYTFGAGTKLELK
notes: as for B1
- MFI (human CD38 on cells): 12200 MFI

B7: X355/01 FAb (Fab, V domains shown)
VH: QVQLVQSGAEVKKPGSSVKVSCKASGGNFISYSISWVRQAPGKRLEWMGWIIPIFGTTTYVQKFQGRVTITADESTSTAYMELSSLRSEDTAVYYCARVKYGSGSYYPNNWFDPWGQGTLVTVSS
VL: EIVLTQSPATLSASPGERATLSCRASQSISSNLAWYQQKPGQAPRLLIQDSSTRATGIPARFSGSGSGTEFTLTISSLQSEDFAVYYCQQSDNWPLTFGGGTKVDIK
notes: as for B3
- binding result [3]: binds
- binding result [4]: binds

B8: X355/02 IgG1 (antibody, V domains shown)
VH: QLQLQESGPGLVKPSETLSLTCTVSGGSISSSSYYWSWIRQHPGKGLEWIGYIYYSGSTNYNPSLKSRVTISVDTLKNQISLRLTSVTAADTAVYYCARVGGAGGWPMDVWGQGTTVTVSS
VL: QAVLTQPASLSASPGESARLTCTLPSDINVRYYNIYWYQQKPGSPPRYLLYYYSDSHKGQGSGVPSRFSGSKDVSTNSGILLISGLQSEDEADYYCMTWSSNGSGVFGGGTQLTVLG
notes: as for B4
- Kd [1]: 7.6 nM
- koff [1]: 0.000892 s⁻¹
- kon [1]: 118000 M⁻¹ s⁻¹
- Kd [2]: 27.4 nM
- koff [2]: 0.00228 s⁻¹
- kon [2]: 83400 M⁻¹ s⁻¹

B9: R7H11 (rat hybridoma antibody) (antibody, V domains shown)
VH: QVQLKESGPGLLLSSETLSLTCTVSGFSLTSYEVSWVRQLPGRGLEWMGRVWIGGDTDYNSDLKSRLSISRDIAKSQVFLKMSNLKTEDTGTYYCARAYGFNYWSFDFWGPGTMVTVSS
VL: GQFTLTQPKSVSGSLRSTITIPCERSSGDIGDNYVTWYQQHLGRPPLNVIYADDQRPSEVSDRFSGSIDSSSNSASLTITNLQMDDEADYFCQSYDSNTDIIFGGGTKVTVL
notes: tested as rat hybridoma supernatant; lambda light chain
- MFI (human CD38 on cells): 680 MFI

B10: R10B10 (rat hybridoma antibody) (antibody, V domains shown)
VH: QVQLKESGPGLVQPSETLSLTCTVSGFSLTSYGVNWVRQPPGKGLEWMGRIWNDGSIDYNSALKSRLSISRDTSKGQVFLKMNSLQTEDTAIYFCARGPYNNYWYFDFWGPGTMVTVLS
VL: GQFTLTQPKSVSGSLRSTITIPCERSSGDIGDNYVSWYQQHLGRPPINVIYADDQRPSEVSDRFSGSIDSSSNSASLTITNLQMDDEADYFCQSYDSNIDIIFGGGTKLTVL
notes: as for B9
- MFI (human CD38 on cells): 858 MFI

B11: R7F11 (rat hybridoma antibody) (antibody, V domains shown)
VH: QIQLVQSGPGLKKPGESVKISCKASGYTFTDYSMHWVKQAPGKGLQWMGWINTYSGKPTYAADFKGRFVFSLEASASTANLQISNLKNEDTATYFCARCYDGTFYYDPMDAWGQGTSVTVSS
VL: NIVLTQSPATLSVTPGESVSLSCRASQSIGTSIHWYQQKSNESPRLLIRYASQSISGIPSRFSGSGSGTDFTLSINRVESEDFSIYYCQQSYSSLVTFGSGTKLEIK
notes: as for B1
- MFI (human CD38 on cells): 11900 MFI
- binding result [5]: binds
- binding result [6]: binds

B12: X913/15 FAb (Fab, V domains shown)
VH: QVQLVESGGGVVQGGGSLRLSCAASGFTVRSNYMSWVRQAPGKGLEWVSAISGSGDSTYYADSVKGRFTISRDNSKNTLYLQMNSLRAEDTAVYYCAKVAVTTGWYFDLWGRGTLVTVSS
VL: QAVLTQPASLSASPGESARLTCTLPSDINVRYHNIYWYQEKPGSPPRYLLYYYSDSSKGQGSGVPSRFSGSKDVSTNTGILVISGLQSEDEAEYYCMTWSSNGSGVFGGGTQLTVL
notes: as for B3
- binding result [3]: binds
- binding result [4]: binds

B13: R5E8 IgG1 (antibody, V domains shown)
VH: EVQLQQSGPEVGRPGSSVKISCKASGYIFTDYIMHWVKQSPGQGLEWIGWIDPEYGSTDYAEKFKKKATLTADTSSSTAYIQLSSLTSEDTATYFCARVAIITTVASGGFAYWGQGTLVTVSS
VL: DIVMTQGALPNPVPSGESASITCQSSESLLHSNGKTYLNWYLQRPGQSPQLLIYWMSTRAAGVSDRFSGSGSGTDFTLTISGVEAEDVGVYYCQQFLEYPPTFGSGTKLEIKR
notes: chimeric rat-human IgG1
- Kd [1]: 2.9 nM
- koff [1]: 0.00118 s⁻¹
- kon [1]: 405000 M⁻¹ s⁻¹
- Kd [2]: 4.2 nM
- koff [2]: 0.0019 s⁻¹
- kon [2]: 452000 M⁻¹ s⁻¹

B14: R5E8 (rat hybridoma antibody) (antibody, V domains shown)
VH: EVQLQQSGPEVGRPGSSVKISCKASGYIFTDYIMHWVKQSPGQGLEWIGWIDPEYGSTDYAEKFKKKATLTADTSSSTAYIQLSSLTSEDTATYFCARVAIITTVASGGFAYWGQGTLVTVSS
VL: DIVMTQGALPNPVPSGESASITCQSSESLLHSNGKTYLNWYLQRPGQSPQLLIYWMSTRAAGVSDRFSGSGSGTDFTLTISGVEAEDVGVYYCQQFLEYPPTFGSGTKLEIK
notes: as for B1
- MFI (human CD38 on cells): 10600 MFI

B15: X355/04 FAb (Fab, V domains shown)
VH: QVQLVQSGAEVKKPGSSVKVSCKASGGTFSSYAISWVRQAPGQGLEWMGGIIPIFGTANYAQKFQGRVTITADESTSTAYMELSSLRSEDTAVYYCARDSSSWYFTYGYFQHWGQGTLVTVSS
VL: DVVMTQSPLSLPVTPGEPASISCRSSQSLLNSNGYNYLEWYVQKPGQSPQLLIFLGSNRASGVPDRFSGSGSGTDFTLKINRVEAEDVGVYYCMQALQSPLTFGGGTKVEIK
notes: as for B3
- binding result [3]: binds
- binding result [4]: binds
